Residue numbers refer to the chain shown, from its start. In names and notes the source's numbering stands. Where two headings read alike, the source gives them in different places.

The Kd is a measure of binding affinity in units of concentration. Low readings indicate a tighter complex, high ones a looser complex. One may read the koff as the first-order rate constant of dissociation. One may read the kon as the rate constant with which the complex forms.

In test [1] the target is T1, human OPGbp [143-317] (human, UniProt O14788 143-317).
T1 construct: also called OPGL
T1 sequence (looked up): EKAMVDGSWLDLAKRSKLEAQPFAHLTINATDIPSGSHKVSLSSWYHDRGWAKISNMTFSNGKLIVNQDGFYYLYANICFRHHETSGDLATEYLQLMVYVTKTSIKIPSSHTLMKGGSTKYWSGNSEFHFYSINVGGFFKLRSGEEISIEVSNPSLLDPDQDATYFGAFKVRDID
In words: SPR (BIAcore), immobilized OPGbp [143-317].

The target of test [2] is T1, human OPGbp [143-317]. In words: SPR (BIAcore), immobilized OPGbp [143-317]. The source holds these as a separate data set. In general terms: Surface plasmon resonance follows binding to a sensor surface in real time, without labels.

B1: “AT” antibody variant N98D (heavy chain CDR3) (antibody, name in Kabat numbering, V domains shown)
VH: QVQLVQSGAEVRKPGASVKVSCKASGYDFSNYAIHWVRQAPGQRLEWMGWINAGNGNTKFSQKFQGRITVTRDTAASTAYMELRSLRSEDTAVYYCARDSSDMVRGIIIAYYFDYWGQGTLVTVSS
VL: EIVMTQSPSSLSASVGDRVTITCRASQSISRYLNWYQLKPGKAPRLLIYGASSLQSGVPSRFSGSGSGAEFTLTISSLQPEDIATYYCQHTRAFGQGTKVEIKR
notes: not shown: human IgG1 CH1, hinge, CH2 and CH3
Consider B1, for which, in the test with human OPGbp [143-317] [1], binding was characterised by a dissociation constant (Kd) of 0.46 nM, the koff is 0.00312 s⁻¹ and the kon was 6.85e+06 M⁻¹ s⁻¹.

B2: “AT” antibody variant S97L (heavy chain CDR3) (antibody, name in Kabat numbering, V domains shown)
VH: B1 VH with S101L, D102N
VL: B1 VL
notes: as for B1
On to B2, for which, in the test with human OPGbp [143-317] [2], the Kd came out at 0.92 nM, the koff was found to be 0.00069 s⁻¹ and the kon came out at 750000 M⁻¹ s⁻¹.

B3: “AT” antibody variant S97I (heavy chain CDR3) (antibody, name in Kabat numbering, V domains shown)
VH: B1 VH with S101I, D102N
VL: B1 VL
notes: as for B1
In the test with human OPGbp [143-317] [2], B3 displayed a Kd of 0.87 nM, a koff of 0.0018 s⁻¹ and a kon of 2.1e+06 M⁻¹ s⁻¹.

B4: “AT” antibody variant N98W (heavy chain CDR3) (antibody, name in Kabat numbering, V domains shown)
VH: B1 VH with D102W
VL: B1 VL
notes: as for B1
In the test with human OPGbp [143-317] [1], B4 yielded a Kd of 2.93 nM, an off-rate constant (koff) of 0.00768 s⁻¹ and a kon of 2.62e+06 M⁻¹ s⁻¹.

B5: “AT” antibody variant S97M (heavy chain CDR3) (antibody, name in Kabat numbering, V domains shown)
VH: B1 VH with S101M, D102N
VL: B1 VL
notes: as for B1
In the test with human OPGbp [143-317] [2], B5 showed a Kd of 12.4 nM, a koff of 0.029 s⁻¹ and an on-rate (kon) of 2.33e+06 M⁻¹ s⁻¹.

B6: “AT” antibody variant S97H (heavy chain CDR3) (antibody, name in Kabat numbering, V domains shown)
VH: B1 VH with S101H, D102N
VL: B1 VL
notes: as for B1
Regarding B6, in the test with human OPGbp [143-317] [2], the Kd is 3 nM, the koff stood at 0.00248 s⁻¹ and the association rate constant (kon) came to 839000 M⁻¹ s⁻¹.

B7: “AT” antibody variant S97V (heavy chain CDR3) (antibody, name in Kabat numbering, V domains shown)
VH: B1 VH with S101V, D102N
VL: B1 VL
notes: as for B1
In the test with human OPGbp [143-317] [2], B7 returned a Kd of 1.18 nM, a koff of 0.00358 s⁻¹ and a kon of 3.04e+06 M⁻¹ s⁻¹.

B8: “AT” antibody variant N98E (heavy chain CDR3) (antibody, name in Kabat numbering, V domains shown)
VH: B1 VH with D102E
VL: B1 VL
notes: as for B1
In the test with human OPGbp [143-317] [1], B8 registered a Kd of 1.32 nM, a koff of 0.00359 s⁻¹ and a kon of 2.72e+06 M⁻¹ s⁻¹.

B9: “AT” antibody variant S97K (heavy chain CDR3) (antibody, name in Kabat numbering, V domains shown)
VH: B1 VH with S101K, D102N
VL: B1 VL
notes: as for B1
Take B9: in the test with human OPGbp [143-317] [2], binding was put at a Kd of 0.4 nM, the koff is 0.00578 s⁻¹ and the kon came out at 1.45e+07 M⁻¹ s⁻¹.

B10: “AT” antibody variant S97G (heavy chain CDR3) (antibody, name in Kabat numbering, V domains shown)
VH: B1 VH with S101G, D102N
VL: B1 VL
notes: as for B1
With B10, the binding result with human OPGbp [143-317] [2] is “no binding”.

B11: “AT” antibody variant N98V (heavy chain CDR3) (antibody, name in Kabat numbering, V domains shown)
VH: B1 VH with D102V
VL: B1 VL
notes: as for B1
In the test with human OPGbp [143-317] [1], B11 registered a Kd of 0.43 nM, an off-rate constant (koff) of 0.000197 s⁻¹ and a kon of 456000 M⁻¹ s⁻¹.

B12: “AT” antibody variant S97Y (heavy chain CDR3) (antibody, name in Kabat numbering, V domains shown)
VH: B1 VH with S101Y, D102N
VL: B1 VL
notes: as for B1
Consider B12, for which the binding result in the test with human OPGbp [143-317] [2] is “no binding”.

B13: “AT” antibody variant N98H (heavy chain CDR3) (antibody, name in Kabat numbering, V domains shown)
VH: B1 VH with D102H
VL: B1 VL
notes: as for B1
In the test with human OPGbp [143-317] [1], B13 yielded a Kd of 1.06 nM, a koff of 0.00234 s⁻¹ and a kon of 2.2e+06 M⁻¹ s⁻¹.

B14: “AT” antibody variant N98K (heavy chain CDR3) (antibody, name in Kabat numbering, V domains shown)
VH: B1 VH with D102K
VL: B1 VL
notes: as for B1
B14: the binding result with human OPGbp [143-317] [1] was “no binding”.

B15: “AT” antibody variant S97Q (heavy chain CDR3) (antibody, name in Kabat numbering, V domains shown)
VH: B1 VH with S101Q, D102N
VL: B1 VL
notes: as for B1
Regarding B15, in the test with human OPGbp [143-317] [2], the affinity, expressed as Kd, was 8.19 nM; the koff was 0.00598 s⁻¹; the kon turned out to be 730000 M⁻¹ s⁻¹.

B16: “AT” antibody variant N98F (heavy chain CDR3) (antibody, name in Kabat numbering, V domains shown)
VH: B1 VH with D102F
VL: B1 VL
notes: as for B1
In the test with human OPGbp [143-317] [1], B16 showed a Kd of 26600 nM, a koff of 0.099 s⁻¹ and a kon of 3700 M⁻¹ s⁻¹.

B17: “AT” antibody variant S97R (heavy chain CDR3) (antibody, name in Kabat numbering, V domains shown)
VH: B1 VH with S101R, D102N
VL: B1 VL
notes: as for B1
Consider B17, for which, in the test with human OPGbp [143-317] [2], the Kd was 28.9 nM, the koff was 0.118 s⁻¹ and the kon is 4.09e+06 M⁻¹ s⁻¹.

B18: “AT” antibody variant N98Q (heavy chain CDR3) (antibody, name in Kabat numbering, V domains shown)
VH: B1 VH with D102Q
VL: B1 VL
notes: as for B1
In the test with human OPGbp [143-317] [1], B18 yielded a Kd of 0.81 nM, an off-rate (koff) of 0.00151 s⁻¹ and a kon of 1.86e+06 M⁻¹ s⁻¹.

B19: “AT” antibody variant S97W (heavy chain CDR3) (antibody, name in Kabat numbering, V domains shown)
VH: B1 VH with S101W, D102N
VL: B1 VL
notes: as for B1
Consider B19, for which, in the test with human OPGbp [143-317] [2], the binding result is reported as “no binding”.

B20: “AT” antibody variant S97D (heavy chain CDR3) (antibody, name in Kabat numbering, V domains shown)
VH: B1 VH with S101D, D102N
VL: B1 VL
notes: as for B1
B20: the binding result with human OPGbp [143-317] [2] is “no binding”.

B21: “AT” antibody variant S97F (heavy chain CDR3) (antibody, name in Kabat numbering, V domains shown)
VH: B1 VH with S101F, D102N
VL: B1 VL
notes: as for B1
As for B21, in the test with human OPGbp [143-317] [2], the binding result was “no binding”.

B22: “AT” antibody variant N98G (heavy chain CDR3) (antibody, name in Kabat numbering, V domains shown)
VH: B1 VH with D102G
VL: B1 VL
notes: as for B1
For B22, in the test with human OPGbp [143-317] [1], the Kd stood at 24.3 nM, the koff turned out to be 0.00559 s⁻¹ and the on-rate (kon) came to 230000 M⁻¹ s⁻¹.

B23: “AT” antibody variant N98P (heavy chain CDR3) (antibody, name in Kabat numbering, V domains shown)
VH: B1 VH with D102P
VL: B1 VL
notes: as for B1
Consider B23, for which, in the test with human OPGbp [143-317] [1], the Kd came to 1.13 nM, the koff is 0.00171 s⁻¹ and the kon came out at 1.51e+06 M⁻¹ s⁻¹.

B24: “AT” antibody variant N98L (heavy chain CDR3) (antibody, name in Kabat numbering, V domains shown)
VH: B1 VH with D102L
VL: B1 VL
notes: as for B1
For B24, in the test with human OPGbp [143-317] [1], the Kd was determined as 0.82 nM, the dissociation rate constant (koff) was found to be 0.00122 s⁻¹ and the kon stood at 1.48e+06 M⁻¹ s⁻¹.

B25: “AT” antibody variant S97E (heavy chain CDR3) (antibody, name in Kabat numbering, V domains shown)
VH: B1 VH with S101E, D102N
VL: B1 VL
notes: as for B1
Consider B25, for which the Kd in the test with human OPGbp [143-317] [2] is 1940 nM.

B26: “AT” antibody variant N98R (heavy chain CDR3) (antibody, name in Kabat numbering, V domains shown)
VH: B1 VH with D102R
VL: B1 VL
notes: as for B1
In the case of B26, in the test with human OPGbp [143-317] [1], binding was characterised by a dissociation constant (Kd) of 0.3 nM, the koff worked out at 0.00108 s⁻¹ and the kon was determined as 3.59e+06 M⁻¹ s⁻¹.

B27: “AT” antibody variant N98M (heavy chain CDR3) (antibody, name in Kabat numbering, V domains shown)
VH: B1 VH with D102M
VL: B1 VL
notes: as for B1
Regarding B27, in the test with human OPGbp [143-317] [1], binding was characterised by a dissociation constant (Kd) of 27.5 nM, the koff is 0.0814 s⁻¹ and the kon worked out at 2.96e+06 M⁻¹ s⁻¹.

B28: “AT” antibody variant N98S (heavy chain CDR3) (antibody, name in Kabat numbering, V domains shown)
VH: B1 VH with D102S
VL: B1 VL
notes: as for B1
In the test with human OPGbp [143-317] [1], B28 returned a Kd of 0.58 nM, a koff of 0.00154 s⁻¹ and a kon of 2.67e+06 M⁻¹ s⁻¹.

B29: “AT” antibody variant S97T (heavy chain CDR3) (antibody, name in Kabat numbering, V domains shown)
VH: B1 VH with S101T, D102N
VL: B1 VL
notes: as for B1
As to B29, in the test with human OPGbp [143-317] [2], binding was put at a Kd of 2.51 nM, the koff turned out to be 0.00116 s⁻¹ and the kon amounted to 463000 M⁻¹ s⁻¹.

B30: “AT” antibody variant S97P (heavy chain CDR3) (antibody, name in Kabat numbering, V domains shown)
VH: B1 VH with S101P, D102N
VL: B1 VL
notes: as for B1
In the test with human OPGbp [143-317] [2], B30 gave a dissociation constant Kd of 24.5 nM, a koff of 0.0269 s⁻¹ and a kon of 1.1e+06 M⁻¹ s⁻¹.

B31: “AT” antibody variant N98Y (heavy chain CDR3) (antibody, name in Kabat numbering, V domains shown)
VH: B1 VH with D102Y
VL: B1 VL
notes: as for B1
For B31, in the test with human OPGbp [143-317] [1], the Kd was determined as 41.3 nM, the off-rate constant (koff) turned out to be 0.0112 s⁻¹ and the kon was 272000 M⁻¹ s⁻¹.

B32: “AT” antibody variant N98I (heavy chain CDR3) (antibody, name in Kabat numbering, V domains shown)
VH: B1 VH with D102I
VL: B1 VL
notes: as for B1
In the test with human OPGbp [143-317] [1], B32 registered a Kd of 7.6 nM, a koff of 0.00436 s⁻¹ and a kon of 568000 M⁻¹ s⁻¹.

B33: “AT” antibody variant S97N (heavy chain CDR3) (antibody, name in Kabat numbering, V domains shown)
VH: B1 VH with S101N, D102N
VL: B1 VL
notes: as for B1
In the case of B33, in the test with human OPGbp [143-317] [2], the Kd is 4.59 nM, the koff was determined as 0.00411 s⁻¹ and the kon is 895000 M⁻¹ s⁻¹.

The values are drawn from US20140147444A1 (published 2014).
